From PMC6355003

B1: Drp1 (dynamin-related protein Drp1), wild type [not stated] / GST-MiD51^133-463, wild type [human] (parent)
chain 1: MEALIPVINKLQDVFNTVGADIIQLPQIVVVGTQSSGKSSVLESLVGRDLLPRGTGIVTRRPLILQLVHVSQEDKRKTTGEENGVEAEEWGKFLHTKNKLYTDFDEIRQEIENETERISGNNKGVSPEPIHLKIFSPNVVNLTLVDLPGMTKVPVGDQPKDIELQIRELILRFISNPNSIILAVTAANTDMATSEALKISREVDPDGRRTLAVITKLDLMDAGTDAMDVLMGRVIPVKLGIIGVVNRSQLDINNKKSVTDSIRDEYAFLQKKYPSLANRNGTKYLARTLNRLLMHHIRDCLPELKTRINVLAAQYQSLLNSYGEPVDDKSATLLQLITKFATEYCNTIEGTAKYIETSELCGGARICYIFHETFGRTLESVDPLGGLNTIDILTAIRNATGPRPALFVPEVSFELLVKRQIKRLEEPSLRCVELVHEEMQRIIQHCSNYSTQELLRFPKLHDAIVEVVTCLLRKRLPVTNEMVHNLVAIELAYINTKHPDFADACGLMNNNIEEQRRNRLARELPSAVSRDKVASGGGGVGDGVQEPTTGNWRGMLKTSKAEELLAEEKSKPIPIMPASPQKGHAVNLLDVPVPVARKLSAREQRDCEVIERLIKSYFLIVRKNIQDSVPKAVMHFLVNHVKDTLQSELVGQLYKSSLLDDLLTESEDMAQRRKEAADMLKALQGASQIIAEIRETHLW
chain 2: MSLQEKLLTYYRNRAAIPAGEQARAKQAAVDICAELRSFLRAKLPDMPLRDMYLSGSLYDDLQVVTADHIQLIVPLVLEQNLWSCIPGEDTIMNVPGFFLVRRENPEYFPRGSSYWDRCVVGGYLSPKTVADTFEKVVAGSINWPAIGSLLDYVIRPAPPPEALTLEVQYERDKHLFIDFLPSVTLGDTVLVAKPHRLAQYDNLWRLSLRPAETARLRALDQADSGCRSLCLKILKAICKSTPALGHLTASQLTNVILHLAQEEADWSPDMLADRFLQALRGLISYLEAGVLPSALNPKVNLFAELTPEEIDELGYTLYCSLSEPEVLLQT

Variants of: B1
Assay: GST pull-down, SDS-PAGE band quantification
Conditions: with GST-MiD51^133-463, wild type [human], read off a plot
[1] = Apo (no nucleotide), parent: 0.15

Q: How did the response (1 mM GDP-AlFx, parent: 0.085) turn out when chain 1 K38A was run?
A: Its response is 0.34 molar ratio.

Q: What about the response (1 mM GDP, parent: 0.14) of the same variant?
A: The response was 0.36 molar ratio.

Q: And the response (1 mM GMP-PNP, parent: 0.69)?
A: The response was 0.43 molar ratio.

Q: And the response (1 mM GTP, parent: 0.37)?
A: The response was 0.4 molar ratio.

Q: What about the response [1] of the same variant?
A: Its response is 0.36 molar ratio.

Q: What about the response (parent: 0.15) of the same variant?
A: Its response is 0.36 molar ratio.

Q: For chain 1 G401A P402A R403A P404A, which response (1 mM GDP-AlFx, parent: 0.085) is on record?
A: Its response is 0.05 molar ratio.

Q: What about the response (1 mM GDP, parent: 0.14) of the same variant?
A: The response was 0.05 molar ratio.

Q: And the response (1 mM GMP-PNP, parent: 0.69)?
A: The response was 0.065 molar ratio.

Q: What about the response (1 mM GTP, parent: 0.37) of the same variant?
A: The response was 0.06 molar ratio.

Q: And the response [1]?
A: The response was 0.07 molar ratio.
